Reference: patent publication US20220096654A1, “PYRROLOBENZODIAZEPINE-ANTIBODY CONJUGATES AND USES THEREOF” (ADC THERAPEUTICS SA, priority 2020, published 2022)

Tests used:
fLuc+ OCIM1 cells [1] = experiment: AML model in NSG mice, treatment the day after cell injection; format: in vivo; conditions: for tumor (bioluminescence) signal: 1 mg/kg or 5 mg/kg i.v. the day after OCIM1 injection
Method: (§1) NSG mice were transplanted with 7.5×10^6 luciferase expressing fLuc+ OCIM1 cells i.v. On the following day, unconjugated rat IgG2b antibodies or ADCs were injected i.v. via a tail vein at a dose of 1 mg/kg or 5 mg/kg. Mice were regularly monitored for signs of morbidity for the duration of the experiment. For imaging, mice were injected intraperitoneally with 200 μl of 15 mg/mL D-luciferin (Regis Technologies) in PBS. Mice were subsequently anesthetized with 4% isoflurane and maintained at 2% isoflurane. Ten minutes after injection of D-luciferin, mice were placed with anterior side up inside a IVIS Lumina III (PerkinElmer). A sub-saturating image was captured using the auto-exposure setting in the Living Image software (v4.5). Quantification and preparation of images was also carried out using the same software.

fLuc+ OCIM1 cells [2] = experiment: Established AML model in NSG mice, treatment 10 days post-injection; format: in vivo
Method: as §1, with “7.5×10^6” for “7.5×10^6 luciferase expressing”, “At 10 days post-injection of AML cells,” for “On the following day,”, “antibody” for “rat IgG2b antibodies”

human CD45+ cells = experiment: Allogeneic stem cell transplant model in humanized NSG mice, comparison of payloads; format: in vivo; conditions: 1 mg/kg
Method: Adult NSG mice (Charles River Laboratories) were sublethally irradiated with 2.5 Gy in a ^137Cs irradiator. On the following day, mice were injected with 0.5×10^6 freshly thawed cryopreserved human CD34+ cells from a health donor were injected via the tail vein in 150 μL PBS using a 29 gauge MicroFine Plus insulin syringe (BD). Engraftment of human cells in the blood was assessed periodically from 6 weeks after transplantation. At 10 weeks post-transplant, humanized NSG mice were assigned into cohorts with similar median human CD45+ cell engraftment in the blood, as determined by flow cytometry. Mice were injected with PBS or 1 mg/kg YTH24.5-B1. Sixteen 16 days after treatment, mice were transplanted with 0.5×10^6 GFP+CD34+ cells from another healthy donor. Irradiated NSG […] were also transplanted with the GFP+CD34+ from the allogeneic healthy donor as a control for engraftment of the GFP+CD34+ cells. 8 weeks after transplantation of GFP+ cells, mice were culled and blood, spleen and bone marrow taken for analysis by flow cytometry.
Experimental schedule is as previously described in example 16 but with the following modifications. Humanized NSG mice at 10 weeks post-transplant were injected with PBS or 1 mg/kg YTH24.5-B1, YTH54.12-B1, Isotype-B1, YTH24.5-B4 and Isotype-3376. Isotype-B2 and YTH24.5-B2 was given at a dose of 5 mg/kg. Transplantation of 0.5×10^6 GFP+CD34+ from an allogeneic human donor and analysis at 8 weeks post-transplant of GFP+ cells was carried out as previously described.

Nalm6 (CD45-) = experiment: Cell viability assay 5 days (PrestoBlue), Nalm6; format: cell-based, human; conditions: rat IgG2b ADC, n=3
Method: (§2) OCIM1, Jurkat and Nalm6 cells were seeded at a final concentration of 1.275×10^4/mL and for 5 days in presence of rat IgG2b Mab or ADC or medium (in triplicate) in wells of flat bottom 96-well plates. 293T cells were seeded at 9.3×10^3 cells per 100 uL per well in flat bottom 96-well plates and allowed to adhere the plate for up to 24 hours. 293T cells were subsequently cultured with rat IgG2b Mabs or ADC or medium (in triplicate wells) as described above. PrestoBlue® Cell viability Reagent (Thermo Fisher Scientific) was added to each and incubated for up to 1.5 hours. Fluorescence intensity from each well was detected using a FLUOstar OPTIMA microplate reader (BMG Labtech). Data was plotted using Prism 8.0 and sigmoid dose-response non-linear regression was used to determine EC50 values. Data points are mean±s.d. for representative experiments.

293T (CD45-) = experiment: Cell viability assay 5 days (PrestoBlue), 293T; format: cell-based, human; conditions: rat IgG2b ADC, n=3
Method: as §2

| Molecule | tumor (bioluminescence) signal (fLuc+ OCIM1 cells [1]) | period of tumor regression / low tumor signal (fLuc+ OCIM1 cells [2]) | percentage GFP+ human CD34+ cells in the bone marrow (mean) (human CD45+ cells) | mean % hCD45+ engraftment in the bone marrow (human CD45+ cells; 8 weeks after allogeneic GFP+ cells, PBS 14.12%) | EC50 (Nalm6 (CD45-)) | EC50 (293T (CD45-)) | mice developing tumor / tumor signal (fLuc+ OCIM1 cells [1]; 1 mg/kg or 5 mg/kg i.v., cohorts of 5 mice) | mice alive at 60 days (fLuc+ OCIM1 cells [2]; cohorts of 5 mice, all tumor-bearing) |
| --- | --- | --- | --- | --- | --- | --- | --- | --- |
| YTH24.5-B4: rat IgG2b anti-CD45 antibody YTH24.5 conjugated to non-cleavable PBD drug-linker B4 (drawing 46) (conjugate) heavy: QVNLLQSGAALVKPGASVKLSCKASSYTFTDYYIHWVKQSHGKTLEWIGYINPKSGFTNYNEKFRRKATLTVDKSTNTAYMDISRLTSEDSATYYCTRRTGVIPMDAWGQGASVTVSSAQTTAPSVYPLAPGCGDTTSSTVTLGCLVKGYFPEPVTVTWNSGALSSDVHTFPAVLQSGLYTLTSSVTSSTWPSQTVTCNVAHPASSTKVDKKVERRNGGIGHKCPTCPTCHKCPVPELLGGPSVFIFPPKPKDILLISQNAKVTCVVVDVSEEEPDVQFSWFVNNVEVHTAQTQPREEQYNSTFRVVSALPIQHQDWMSGKEFKCKVNNKALPSPIEKTISKPKGLVRKPQVYVMGPPTEQLTEQTVSLTCLTSGFLPNDIGVEWTSNGHIEKNYKNTEPVMDSDGSFFMYSKLNVERSRWDSRAPFVCSVVHEGLHNHHVEKSISRPPGK light: DVVMTQTPVSLSVSLGGQVSISCRSSQSFVSSDGNTYLNWYLQKPGQSPQLLIYKVSNRLSGVPDRFSGSGSGTDFTLKISRVEHDDLGVYYCGQASKIPLTFGSGTKLEIKRADAAPTVSIFPPSMEQLTSGGATVVCFVNNFYPRDISVKWKIDGSEQRDGVLDSVTDQDSKDSTYSMSSTLSLTKVEYERHNLYTCEVVHKTSSSPVVKSFNRNEC | Low/absent tumor signal | marginally longer period of low tumor signal than YTH24.5-B1 | 57.95% | 7.34% | 0.162 nM | > 6 nM |  |  |
| YTH24.5-B7: rat IgG2b anti-CD45 antibody YTH24.5 conjugated to PBD drug-linker B7 (drawing 49) (conjugate) heavy: QVNLLQSGAALVKPGASVKLSCKASSYTFTDYYIHWVKQSHGKTLEWIGYINPKSGFTNYNEKFRRKATLTVDKSTNTAYMDISRLTSEDSATYYCTRRTGVIPMDAWGQGASVTVSSAQTTAPSVYPLAPGCGDTTSSTVTLGCLVKGYFPEPVTVTWNSGALSSDVHTFPAVLQSGLYTLTSSVTSSTWPSQTVTCNVAHPASSTKVDKKVERRNGGIGHKCPTCPTCHKCPVPELLGGPSVFIFPPKPKDILLISQNAKVTCVVVDVSEEEPDVQFSWFVNNVEVHTAQTQPREEQYNSTFRVVSALPIQHQDWMSGKEFKCKVNNKALPSPIEKTISKPKGLVRKPQVYVMGPPTEQLTEQTVSLTCLTSGFLPNDIGVEWTSNGHIEKNYKNTEPVMDSDGSFFMYSKLNVERSRWDSRAPFVCSVVHEGLHNHHVEKSISRPPGK light: DVVMTQTPVSLSVSLGGQVSISCRSSQSFVSSDGNTYLNWYLQKPGQSPQLLIYKVSNRLSGVPDRFSGSGSGTDFTLKISRVEHDDLGVYYCGQASKIPLTFGSGTKLEIKRADAAPTVSIFPPSMEQLTSGGATVVCFVNNFYPRDISVKWKIDGSEQRDGVLDSVTDQDSKDSTYSMSSTLSLTKVEYERHNLYTCEVVHKTSSSPVVKSFNRNEC | Increasing tumor signal in three mice |  |  |  | 0.905 nM | > 6 nM | 3/5 |  |
| YTH54.12-B4: rat IgG2b anti-CD45 antibody YTH54.12 conjugated to non-cleavable PBD drug-linker B4 (drawing 46) (conjugate) heavy: EVQLVESGGGLVQPGGSMKLSCAASGFTFSDYYMAWVRQAPKKGLEWVASMSFAGSSTYYGDSVKGRFTISRDNAKTTLYLQMNSLRSEDTATYYCARMYTTDYYLYWYFDFWGPGTMVTVSSAQTTAPSVYPLAPGCGDTTSSTVTLGCLVKGYFPEPVTVTWNSGALSSDVHTFPAVLQSGLYTLTSSVTSSTWPSQTVTCNVAHPASSTKVDKKVERRNGGIGHKCPTCPTCHKCPVPELLGGPSVFIFPPKPKDILLISQNAKVTCVVVDVSEEEPDVQFSWFVNNVEVHTAQTQPREEQYNSTFRVVSALPIQHQDWMSGKEFKCKVNNKALPSPIEKTISKPKGLVRKPQVYVMGPPTEQLTEQTVSLTCLTSGFLPNDIGVEWTSNGHIEKNYKNTEPVMDSDGSFFMYSKLNVERSRWDSRAPFVCSVVHEGLHNHHVEKSISRPPGK light: DVQMTQSPSYLAASPGESVSISCKASKSISNYLAWYQQKPGEANKILIYSGSTLQSGTPSRFSGSGSGTDFSLTIRNLEPEDFAVYYCQQYDEKPLTFGSGTKLEIKRADAAPTVSIFPPSMEQLTSGGATVVCFVNNFYPRDISVKWKIDGSEQRDGVLDSVTDQDSKDSTYSMSSTLSLTKVEYERHNLYTCEVVHKTSSSPVVKSFNRNEC |  |  |  |  | 0.715 nM | > 6 nM |  | 4/5 |
| YTH54.12-B7: rat IgG2b anti-CD45 antibody YTH54.12 conjugated to PBD drug-linker B7 (drawing 49) (conjugate) heavy: EVQLVESGGGLVQPGGSMKLSCAASGFTFSDYYMAWVRQAPKKGLEWVASMSFAGSSTYYGDSVKGRFTISRDNAKTTLYLQMNSLRSEDTATYYCARMYTTDYYLYWYFDFWGPGTMVTVSSAQTTAPSVYPLAPGCGDTTSSTVTLGCLVKGYFPEPVTVTWNSGALSSDVHTFPAVLQSGLYTLTSSVTSSTWPSQTVTCNVAHPASSTKVDKKVERRNGGIGHKCPTCPTCHKCPVPELLGGPSVFIFPPKPKDILLISQNAKVTCVVVDVSEEEPDVQFSWFVNNVEVHTAQTQPREEQYNSTFRVVSALPIQHQDWMSGKEFKCKVNNKALPSPIEKTISKPKGLVRKPQVYVMGPPTEQLTEQTVSLTCLTSGFLPNDIGVEWTSNGHIEKNYKNTEPVMDSDGSFFMYSKLNVERSRWDSRAPFVCSVVHEGLHNHHVEKSISRPPGK light: DVQMTQSPSYLAASPGESVSISCKASKSISNYLAWYQQKPGEANKILIYSGSTLQSGTPSRFSGSGSGTDFSLTIRNLEPEDFAVYYCQQYDEKPLTFGSGTKLEIKRADAAPTVSIFPPSMEQLTSGGATVVCFVNNFYPRDISVKWKIDGSEQRDGVLDSVTDQDSKDSTYSMSSTLSLTKVEYERHNLYTCEVVHKTSSSPVVKSFNRNEC |  |  |  |  | 1.56 nM | > 6 nM |  |  |
| YTH54.12-B2: rat IgG2b anti-CD45 antibody YTH54.12 conjugated to PBD drug-linker B2 (drawing 44) (conjugate) heavy: EVQLVESGGGLVQPGGSMKLSCAASGFTFSDYYMAWVRQAPKKGLEWVASMSFAGSSTYYGDSVKGRFTISRDNAKTTLYLQMNSLRSEDTATYYCARMYTTDYYLYWYFDFWGPGTMVTVSSAQTTAPSVYPLAPGCGDTTSSTVTLGCLVKGYFPEPVTVTWNSGALSSDVHTFPAVLQSGLYTLTSSVTSSTWPSQTVTCNVAHPASSTKVDKKVERRNGGIGHKCPTCPTCHKCPVPELLGGPSVFIFPPKPKDILLISQNAKVTCVVVDVSEEEPDVQFSWFVNNVEVHTAQTQPREEQYNSTFRVVSALPIQHQDWMSGKEFKCKVNNKALPSPIEKTISKPKGLVRKPQVYVMGPPTEQLTEQTVSLTCLTSGFLPNDIGVEWTSNGHIEKNYKNTEPVMDSDGSFFMYSKLNVERSRWDSRAPFVCSVVHEGLHNHHVEKSISRPPGK light: DVQMTQSPSYLAASPGESVSISCKASKSISNYLAWYQQKPGEANKILIYSGSTLQSGTPSRFSGSGSGTDFSLTIRNLEPEDFAVYYCQQYDEKPLTFGSGTKLEIKRADAAPTVSIFPPSMEQLTSGGATVVCFVNNFYPRDISVKWKIDGSEQRDGVLDSVTDQDSKDSTYSMSSTLSLTKVEYERHNLYTCEVVHKTSSSPVVKSFNRNEC |  |  |  |  | 0.0279 nM | > 6 nM |  |  |
